Molecular target: T1, CSEP0064/BEC1054 (Blumeria graminis) (UniProt N1JJ94)
T1 sequence: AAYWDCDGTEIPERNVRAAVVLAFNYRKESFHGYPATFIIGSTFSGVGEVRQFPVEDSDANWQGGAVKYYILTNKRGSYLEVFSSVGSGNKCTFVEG
Assay: NMR

Substance: SRL DNA oligonucleotide
- Kd: > 10 µM
